Experimental data as given in patent US20190353642A1 (WUHAN INSTITUTE OF VIROLOGY CHINESE ACADEMY OF SCIENCES, published 2019).

B1: Flag-tagged NS5A derived from HCV genotype 2a strain JFH1 (pRK-Flag-NS5A), full length (other)
chain: SGSWLRDVWDWVCTILTDFKNWLTSKLFPKLPGLPFISCQKGYKGVWAGTGIMTTRCPCGANISGNVRLGSMRITGPKTCMNTWQGTFPINCYTEGQCAPKPPTNYKTAIWRVAASEYAEVTQHGSYSYVTGLTTDNLKIPCQLPSPEFFSWVDGVQIHRFAPTPKPFFRDEVSFCVGLNSYAVGSQLPCEPEPDADVLRSMLTDPPHITAETAARRLARGSPPSEASSSVSQLSAPSLRATCTTHSNTYDVDMVDANLLMEGGVAQTEPESRVPVLDFLEPMAEEESDLEPSIPSECMLPRSGFPRALPAWARPDYNPPLVESWRRPDYQPPTVAGCALPPPKKAPTPPPRRRRTVGLSESTISEALQQLAIKTFGQPPSSGDAGSSTGAGAAESGGPTSPGEPAPSETGSASSMPPLEGEPGDPDLESDQVELQPPPQGGGVAPGSGSGSWSTCSEEDDTTVCC
notes: not shown: Flag tag from vector pRK-7 Flag
B2: HA-tagged full length NS5A (other)
chain: B1 chain
notes: also called HA-tagged NS5A; not shown: HA tag from vector pRK-7 HA
B3: NS5A of HCV JFH1 in infected Huh7.5.1 cells (other)
chain: B1 chain
notes: also called endogenous NS5A
B4: flag-tagged truncated CD2AP 1-330 aa (other)
chain: MVDYIVEYDYDAVHDDELTIRVGEIIRNVKKLQEEGWLEGELNGRRGMFPDNFVKEIKRETEFKDDSLPIKRERHGNVASLVQRISTYGLPAGGIQPHPQTKNIKKKTKKRQCKVLFEYIPQNEDELELKVGDIIDINEEVEEGWWSGTLNNKLGLFPSNFVKELEVTDDGETHEAQDDSETVLAGPTSPIPSLGNVSETASGSVTQPKKIRGIGFGDIFKEGSVKLRTRTSSSETEEKKPEKPLILQSLGPKTQSVEITKTDTEGKIKAKEYCRTLFAYEGTNEDELTFKEGEIIHLISKETGEAGWWRGELNGKEGVFPDNFAVQINE
notes: Contains all three SH3 domains; not shown: Flag tag
B5: flag-tagged truncated CD2AP 1-107 aa (other)
chain: MVDYIVEYDYDAVHDDELTIRVGEIIRNVKKLQEEGWLEGELNGRRGMFPDNFVKEIKRETEFKDDSLPIKRERHGNVASLVQRISTYGLPAGGIQPHPQTKNIKKK
notes: Contains the first SH3 domain; not shown: Flag tag
B6: flag-tagged truncated CD2AP 1-268 aa (other)
chain: MVDYIVEYDYDAVHDDELTIRVGEIIRNVKKLQEEGWLEGELNGRRGMFPDNFVKEIKRETEFKDDSLPIKRERHGNVASLVQRISTYGLPAGGIQPHPQTKNIKKKTKKRQCKVLFEYIPQNEDELELKVGDIIDINEEVEEGWWSGTLNNKLGLFPSNFVKELEVTDDGETHEAQDDSETVLAGPTSPIPSLGNVSETASGSVTQPKKIRGIGFGDIFKEGSVKLRTRTSSSETEEKKPEKPLILQSLGPKTQSVEITKTDTEGKI
notes: not shown: Flag tag

Tests used:
[1] = target: T1, HA-tagged CD2AP (pRK-HA-CD2AP), human, full length (human, UniProt Q9Y5K6 1-639); experiment: co-IP with anti-flag antibody from HEK 293T cells over-expressing both, blot with anti-HA
T1 construct: Over-expressed in HEK 293T cells and tested in cell lysate by co-IP; also called CD2 associated protein; not shown: HA tag from vector pRK-7 HA

[2] = target: T2, flag-tagged truncated CD2AP 60-639 aa (human, UniProt Q9Y5K6 60-639); experiment: co-IP with anti-flag antibody, HEK 293T cells, blot with anti-HA
T2 construct: No first SH3 domain, all other CD2AP domains kept; also called CD2AP lacking the first SH3 domain; not shown: Flag tag
T2 sequence (Q9Y5K6 60-639): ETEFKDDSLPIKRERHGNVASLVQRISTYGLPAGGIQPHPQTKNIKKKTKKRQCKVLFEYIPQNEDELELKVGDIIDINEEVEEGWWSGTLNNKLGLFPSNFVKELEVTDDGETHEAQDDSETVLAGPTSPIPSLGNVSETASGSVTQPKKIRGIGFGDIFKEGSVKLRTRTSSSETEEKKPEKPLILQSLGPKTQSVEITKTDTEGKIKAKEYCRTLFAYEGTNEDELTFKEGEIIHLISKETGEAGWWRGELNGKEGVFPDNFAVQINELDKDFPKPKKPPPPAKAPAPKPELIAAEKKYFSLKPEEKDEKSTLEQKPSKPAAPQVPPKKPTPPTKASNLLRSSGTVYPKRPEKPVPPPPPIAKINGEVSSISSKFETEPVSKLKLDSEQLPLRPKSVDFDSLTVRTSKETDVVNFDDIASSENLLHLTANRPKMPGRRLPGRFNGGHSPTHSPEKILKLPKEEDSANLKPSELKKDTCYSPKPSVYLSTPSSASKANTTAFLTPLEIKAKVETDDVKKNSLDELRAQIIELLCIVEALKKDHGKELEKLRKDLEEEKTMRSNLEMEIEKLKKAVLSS

[3] = target: T3, flag-tagged CD2AP 1-639 aa (full length) (human, UniProt Q9Y5K6 1-639); experiment: as above
T3 construct: also called Full length CD2AP; not shown: Flag tag

[4] = target: T4, CD2AP, endogenous, in Huh7.5.1 cells (human, UniProt Q9Y5K6 1-639); experiment: endogenous co-IP, both directions, Huh7.5.1 cells infected with HCV JFH1
T4 construct: Endogenous protein of human hepatoma Huh7.5.1 cells, in cell lysate

[5] = target: B2; experiment: co-IP with anti-flag antibody, HEK 293T cells, blot with anti-HA

Q: Does B1 bind [1]?
A: binds

Q: Does B2 bind [2]?
A: binds

Q: Does B2 bind [3]?
A: binds

Q: Does B3 bind [4]?
A: binds

Q: Does B4 bind [5]?
A: binds

Q: Does B5 bind [5]?
A: binds

Q: Does B6 bind [5]?
A: binds
